Source: PMC7115839, “An ATP-responsive metabolic cassette comprised of inositol tris/tetrakisphosphate kinase 1 (ITPK1) and inositol pentakisphosphate 2-kinase (IPK1) buffers diphosphosphoinositol phosphate levels” (Biochemical Journal, 2020)

Substrate: Nc1ncnc2c1ncn2[C@@H]1O[C@H](COP(=O)(O)OP(=O)(O)OP(=O)(O)O)[C@@H](O)[C@H]1O
Assay: HPLC of inositol phosphates, Michaelis-Menten fit
Assay type: biochemical, Arabidopsis thaliana
Conditions: co-substrate Ins(3,4,5,6)P4 (preferred), 0.08-10 mM ATP, 1 mM MgCl2, HEPES pH 7.5, 25 C

B1: ITPK1 (AtITPK1) (Arabidopsis thaliana) (protein)
chain: MSDSIQERYLVGYALAAKKQHSFIQPSLIEHSRQRGIDLVKLDPTKSLLEQGKLDCIIHKLYDVYWKENLHEFREKCPGVPVIDLPEAIERLHNRVSMLEVITQLRFPVSDSERFGVPEQVVVMDSSVLSGGGALGELKFPVIAKPLDADGSAKSHKMFLIYDQEGMKILKAPIVLQEFVNHGGVIFKVYVVGDHVKCVKRRSLPDISEEKIGTSKGSLPFSQISNLTAQEDKNIEYGEDRSLEKVEMPPLSFLTDLAKAMRESMGLNLFNFDVIRDAKDANRYLIIDINYFPGYAKMPSYEPVLTEFFWDMVTKKNHV
notes: recombinant in E. coli Rosetta 2(DE3)pLysS, pOPINF, 3C-cleavable His tag (printed as C-terminal); Ni-NTA and Superdex 75
Km: 770 ± 190 µM
